According to the NTF2 design screens of Basanta et al. (2020):

Experiment: protease stability score; higher = more stable; yeast display proteolysis, trypsin and chymotrypsin;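 further: relative to predicted unfolded state with 0 unfolded-like and 1 meaning tenfold more protease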

Sequence | protease stability score
DENHEIVKRALEIIVVALLTGDFDTLTELFDPEVRIQVGDKHLHGREDFWKWLKELITRADHNDFKVESIEVQGDKMVIDGEMIIHYNGREHRYKTEVIILKIDGRWVVKRIHYE | 1.65
DENHEVAEYILKILVESLETGNEELFKRLIDPNVRIEINGVEVHGWQFWIDHIDELRIRRVEAILRDAREYNGRIDMDTELKMDGEIDGVRTETSRRVRMVLEKVNGRWYVREIRIE | 2.39
DENHRHASELIEIFRHALATGDWETLYRLMDPHTRVLINGKDLHGMEEHLTFLLEEHERLGIENIDVRVRIDHREVQGDKIIIHITIHLNFNGREIYFESRIIVSKFNGRWSIESLEIR | 1.42
DENKETIDRVYRLLDEALKTGDFEIFAYLMDPHVRNDVDGVDIVGRDLVKKVLEDIIRDLGFKHETLKVHDWRSINGRVHIDTEVELDVNGVDLRKRTIIIALKINGKWRITEIVFE | 2.33
DENKKAFEEAVSWFRHTSETGDEELFNDLVDPDTRTNYNGVSYHGWKEYEEYLRLIRELLGIKVVKHVHIHSVDVQGDFIHMDVELNLHYNGRERIERSHIRAFKVNGRWRMKSMIVV | 0.362
DENRELMERIARLVLHWLHTGDEHFIERLVDPHARVQQGDKEDHGMDRVVEMWNELRVHHVELRHLEVFENHATIHGEIDGEINGQRVRLDFHIHIHIVDGRMETIHVHFR | 2.1
DENRKFARVMTELILHSWYTGDWELDVKLADPNVLNDFNGKEIHGMENVSRQFIEMRIDDVRIRDLRIEVYGEKLISKIDGERNGHFDGRTVDTRMHLELIMEKINGRWIIREIRIEVK | 2.59
DENRQDLEHFHKVLLKLLETGDENMIARLADPNVREDVNGVDNHGMKDLERTLREIHERVDHIHHVHIHRVDVINGRAHLDGTLRGHVNGVSFQHRETVIYLKFNGRWVLHSVHLK | 1.2
DENRRHELEIAQILLHAWVTGDEHILRRFADPDMQFVLEFDGKTIDLHGRELVISFFRDLVDKLGVDHITLESHRVINGRTHIDTRVIFNGVDREEKIHIHIVNGRLKHLELRVH | 1.22
DENSHALEIAFRLFLEYYYTGDPDEMVELADPRTRLFVGEYDSHGREQFETLLREEFKRLGIDVQHITEWEIHVQGDKVILHVRVHEVFNGKETETEIHITMHKIDGRWLISSQKRRIV | 0.626
DENTENEHNIAEVIIEAFETGDWEMLWRMADPNTLLEIIIGDKRMEIHGMHIFVKYWVEFQDRFKNVRISLKSYHVYDGRIELHMNLNFNGRRVEEEVLIYFINGRVKRIHIRHH | 2.8
DENTESVHWLIRVLIQSARTGDEDSMRHLFDPNTKLNINGQEIHGREVAEEWANRVDHIEHVELHRIRNIDGQLDVEGKMRGTVNGKRDENRIELIIIKVDGQWFLRSIRIE | 1.57
DENTRLRREAFRIERKTWKTGDERLLEENADPDAKYDVDGKDLHGWREVVHFLDDFLKRFGFDHFEVKEIRVQGEKIIIDGRVEVNGRVFETRVIFTKFDGQWSVQSLQMR | 0.444
DEQEDRDMKKMYKNLQEGDDQRVADMADPNARWRVGDKTYHGKDSIRHWAKEVHDRMHFRIQSITVQNENGKVKVEIKWVTDENGKPVDQTVQVKAELHNGHIVDIDITTQS | 0.098
DEQEEDDREAVKHALEVWETGDERVLWELFDPHVRIIVGDKHVHGREHFLRLTHELKRKVKGIRFDIRHVNLYDGRIEMDTDLEVDGRKHKTTIIAKKVNGRWILESIEIR | 1.45
DEQEEFSHRIMRLLIDLWHTGDWTLIEQYLDPNVRFEVGDKRHHGRESAVKALLELHRRLGVKHFDVKDKDQQGEKLVVVLEDRAENHHMEHELIVVKIDGRWTNHSIISRIH | 1.01
DEQEEHLHEMVRRFLHHFLTGDWKTLHRMFDPNARYHINGQDHVGREEINRFWREHWEHARIHDLRIKSVELFENRSHIIGHLDGNIDGKEVRTDVEIILVIVNGRVRYIEVRQH | 1.52
DEQEEHVEKLVHLLLRRFKTGDEEFWRRLADPRTRLHVGDKHHHGRETFMKVFRHLIEDLGIDHRIEKHFEVINGVLHIHQIIVVDGQEFELRIHVFVVDGKVKSIDVSIHTR | 0.896
DEQEEKLERMYKLWLELHRTGDEEILTELIDPTARLEVGDKSFHGREILIEWFHRELKRIDHKEVRERHIEIQGEWLHAEIEVIIIVNGREIRITTELIIVTINGKIKSINIKIR | 2.23
DEQEELSQLLAEIVIELTKTGDEHTLERLMDPHVRANINGVELHGRKKVREFLEEWLRRVKNVRLHIDDRTVQGEKIIVDGTWNVGDKSFRIEFIVIIINGRHTSFNVLDI | 1.51
DEQEESSRIIHKLIEHVAETGDWREWRKLLDPNTRLDVNGKEFHGWEKLLEHLEEHLDLLGVTKFTLRIQIRSMETQGNYVFIVGITHIHQGDKEIHRFTELIVLKINGKWLMKEIRFR | 1.37
DEQEESTRIAMELVLRSLKTGDERTVSELVDPNVRYEQGDKEYHGWESASEVVRRLGVDHFIIHDIKIQGNKLHLHGELVVGDYTLKYHIIVLKVNGRWQITRMHTI | 1.2
DEQEHVAERIVNDLNHSMETGDEHRIRELVDPHVRVIIGDKELHGMEEFIRWLREFGVERIRVRLKRFSFVGNKIRLDTVMNINGQNVDTKLIIEKVDGRWLLRSIHVD | 2.18
DEQEKEAKRVVEEILEILLTGDFESFLRNADPNVRIIIGDKDYWGREHTKRLLTDWRREMRVKHIDVRDIEVQGNKVKLHLESDLEINGRRTRTEMEIIVVTFNGRFESLEIRTV | 1.75
DEQEKELEEFLKLLLYAIWTGDEDTITELADPNVRMHIGDKLNHGWEILSDRLTEIRSDIHDFKLRHIETIGNKMTLFGDLNGQINVGDKEKRTIIHMILHVHKIDGRWLLTHIHFD | 0.265

Sequence | protease stability score
DEQEKFSKEMARLFIELRLTGDWETFTHLADPDVLWEIHVDGQSERNIGWESVRHAMEKERHELRIEHIHIRDVKIQGNKIHINTEVVGQFNGRRFIVDSRIHIHIVNGRIKDVTIEIE | 1.16
DEQEKHLKKISEDLLRIWLTGDEDTFREMADPDMRFIDEDHELHGREELIRMMREFWHKFKNARIEIHHVEVIGEYNNVDIRLSVDGRVVDVKLHFLIVNGRLKKVEVRER | 2.07
DEQEQHAFKFFEHHTEILKTGDWEEVRKNLDPHVRLHVNGVEMHGMEHATELALKEDTEIRSELRLEDVDVQGDKVRFDIRLIYHIGDKTIVHKIDLVMIKINGRWLVHSIHVE | 0.36
DEQERAQEALRRFLRVFQEGDPDRARQQADKDVQMVVGDKEYEGREQVSRAIESLRERVDEFHITVRRITVSGNRVVVDAKLKLNINGKEDDVTLKLVIDVSGDKISIKRVEVR | 1.16
DEQERAYELALRTIEHDLRTGDEKSLQENADPNTRLLVGDKELVGWELFIKLMREIRIRHIEVRHMEVQGNKLIFDGKVDGEIGDKRVEYETEIILEKVDGQWRIKEKRLH | 0.862
DEQERHAEEFVREHMNAWVTGDWEMLIRQLDPNTRFIQGDKRHHGREALHYMRERVDHIKSVHIDRVDVYNGRVIIDIELIGLIDGRDVTFHVHIITKKIDGRWIVHELRHE | 0.82
DEQERIIRRLTELFTRAEKTGDWKNFLELADPHVRLKYGEFDHIGREEFYTLKEHVDKKLGIEFRDTDIKDLVVVGDKAVSHLTNDGEVNGVRHELSLNVVISKFNGRWELEQVEIK | 0.897
DEQERLMRKLAEIIVEAIITGDWRSLAELFDPDVRIDINGRELIGRETWVTWLQEEYKRFKNQRIELHIRDVDVQGDYSHIDGHSRIVIGDFVFTTEIHTEIVIIDGRVHSMHHHVK | 1.18
DEQERRSRELLHLWLELFETGDEDNMQEFLDPNVRLIIIQGDNQVNHHGWENMVKIAKFYKNMQIKVHDVEFQGDKVIMDTRLLVDGRLRHTTVILDIVNGVIKHVEIRYS | 1.69
DEQETHNNNILERLIRILHTGDEHIYEHLFDPHARLHIGDKRFHGREELSRWLRRLGVRWEHFIERDVEVQGEKLRIEGERTVHIDGVRHHHRTEIIIIVIDGKIKSYEERHV | 0.572
DEQFKEQKDMHRELEEALLTGDEESWHRLMDPNTRLFFEGRIHHGREEVVRAIREIRRRFGFKVIKRFEVEHVEIIDGRVDIRTIIRGEVNGRDSSLDTRLILNKIDGKWVIQSIIIE | 2.2
DEQHEEAERAMEHMNRIEHTGDEDDLDRLMDPRTKIEVGDKELHGRHLWRVFLREARIHDSKIRDIRVIGDKVTFHTEVRITINGVEVRVHVIMIIEKVDGKWLVHRVIIR | 1.35
DEQHKEVRTFLEIHINMRATGNEEILFHQVDPHVRLIINGRQFHGWEEYEKFAHTSARFFKNVQIRIHRVEVYIQGDKIHVNMHVWYNVNGQTMEVDLHSEMIKVDGQWRLDSEIISIR | 1.33
DEQKHVFNNVLRWLLESLETGDEEDLERLMDPNTRLHINGQDLHGREALRKHIEHRLKSLGVDHVHLRVHDVHIIDGKIEVDSELDLKIGDKEIRMKVRLIALKINGRWLVKHFDVT | 1.29
DEQKNWAKIMLELLEHAWRTGDEHTLQELADPNTRLNIGDKDIIGWDLILTVLIEIRMSFSYRLEEVHTFENHVVLRTRLIRVLHFDGKSTEFVKETELYIEKVDGRWILRHIVIK | 1.29
DEQNELLDRLSTILLRLLWTGDEDQWLRLADPDMKLDVGNFKTVGRERVIEIFRAWERHIRVERMHLEDTKLQGDFYFSDYRVDGQINGQRTDTRVIYIFVVVNGRMKSIKVIIE | 1.34
DEQQEDAEHATELLLRLLETGDWSTFEKLMDPHVRVDIGDKHLHGREMSSHFIKELVERYPNLRISFKDMRVQGEFIHVIGEVNFNGQRFHSEWVVLKVDGRWTINSVRIE | 1.28
DEQSRVSEEVIKIWLESVNTGDEKSLSELIDPNVKIHVNGKKMHGWRDAEDHARRIDHMHVEDFKIESIQTQGDFAILHGRLVYSRIVNGVELHSDEHVEMVILKYNGRWSIEEVRVR | 1.27
DEQTELEDKMRELIMRTWDTGDEKLLQELADPDARAHFNINGQTDSRHGREEILRLFIKLWEILGVDHLHLQHVSVIDGKFHIHQEVRYDGKVTFLHIHVWIVNGRNRQFNVHIEHR | 0.407
DERDEAEKVLMKILLDNHHTGDEESLERLIDPNAKIIYGDKDYVGWELMIEWVRHARVHRVEIKDSRVQGDKVNLDGHEDGNINGKRRRTNVIVYLLKINGRWFFHSIQID | 2.17
DERDEEAHRMTETFYELQRTGDEESTHHLADPHVKFEYLIGDKYFEIHGWDRVLEFWLRYKGVREEIDHRRVRVINGKIHIELIVKIRIGDKTHVHRIELNIEKVDGRWILREVRVEVK | 1
DERDEETRRAIEWWVEVLKTGNFKDIKELADPNARVHQGDKHFHGMDHFLDFLERLGIDHVQINHIHYFDGKIEIDHHVRIGDKETRVIFISDKIDGRWRITEVQFH | 1.13
DERDEHAHHFFELLLKMWETGDEHELIKFFDPDPRFIYNGKELHGREIAEEFIKEWRVHDMRVKRINVQGEKVIFDGIMDGEFNGKRIFIETHIYMTKVNGKWRTKFIEFN | 1.42
DERDEHSRHVAELWLQSMETGDWEHDRRLLDPNMKFEAPNHSLHGRDSYVETMRKIKNLVIHDTKIEHYEVQGDKAHVQMRIDVIVGDKRTWVEVRVEIVVVDGVLHSLRIEIE | 0.777
DERDELLEHVIKLHQDALRTGDEHTLTELMDPHVRVIIGDKHHHGWESITKYLRELRFHSHEVHIDHVHIFNGRIHADITLRGTHHFNGRTFHDTHKVELINTKINGKWTIESLIIR | 1.15
